Assay results taken from paper PMC4399498 (Nature communications, 2014).

Target: the molecule itself
Assay: crystal structure

B1: KdpE-E216A (natural protein, E. coli, UniProt P21866 1-225, looked up)
chain: MTNVLIVEDEQAIRRFLRTALEGDGMRVFEAETLQRGLLEAATRKPDLIILDLGLPDGDGIEFIRDLRQWSAVPVIVLSARSEESDKIAALDAGADDYLSKPFGIGELQARLRVALRRHSATTAPDPLVKFSDVTVDLAARVIHRGEEEVHLTPIEFRLLAVLLNNAGKVLTQRQLLNQVWGPNAVEHSHYLRIYMGHLRQKLEQDPARPRHFITATGIGYRFML
binding result: binds
